What was measured:
[1] = test system: Il2rg ZFN-1 (synthetic construct); assay: cell_activity; conditions: ZFN-1+ZFN-2 pair with LTVEC versus LTVEC alone, fold increase in targeting efficiency; 6 bp spacer; mouse F1H4 ES cells
[2] = test system: Il2rg ZFN-2 (synthetic construct); assay: cell_activity; conditions: ZFN-1+ZFN-2 pair with LTVEC versus LTVEC alone, fold increase in targeting efficiency; 6 bp spacer; mouse F1H4 ES cells

Sequence	activity [1] [fold]	activity [2] [fold]
AGCTCCAAGGTCCTC (double strand) [Il2rg exon 1 ZFN-1 half-site (sense strand)]	4	–
GTCTTCATTCGCACT (double strand) [Il2rg exon 1 ZFN-2 half-site (anti-sense strand)]	–	4

Reference: patent US20180037910
